The target in experiment [1] is N-formyl-methionyl-leucyl-phenylalanine (fMLF) receptor on elicited rat peritoneal neutrophils (rat) (UniProt D4A7Q2). Briefly: cell-based or functional assay.
Experiment [2] deals with N-formyl-methionyl-leucyl-phenylalanine (fMLF) receptor on human neutrophils (human) (UniProt P21462). Briefly: competition with 6 nM 3H-fMLF for binding to human neutrophils.
Experiment [3] concerns the target N-formyl-methionyl-leucyl-phenylalanine (fMLF) receptor on elicited rat peritoneal neutrophils (rat) (UniProt D4A7Q2). Briefly: Scatchard analysis of 3H-fMLF saturation binding to elicited rat peritoneal neutrophils.
Experiment [4] shares this target. Description: saturation binding of 3H-fMLF to elicited rat peritoneal neutrophils, one-site fit (Prism).
Experiment [5] shares this target. Description: Scatchard transformation of the 3H-fMLF binding isotherm on elicited rat peritoneal neutrophils.
The target is the same in experiment [6]. Description: competition with 6 nM 3H-fMLF for binding to elicited rat peritoneal neutrophils, 4 C, filter harvest.
Experiment [7] addresses T1, N-formyl-methionyl-leucyl-phenylalanine (fMLF) receptor on elicited rat peritoneal neutrophils (rat, UniProt D4A7Q2 1-355).
T1 construct: Native receptor on whole neutrophils (PMNs); also called Rat FPR; formyl peptide receptor
T1 sequence: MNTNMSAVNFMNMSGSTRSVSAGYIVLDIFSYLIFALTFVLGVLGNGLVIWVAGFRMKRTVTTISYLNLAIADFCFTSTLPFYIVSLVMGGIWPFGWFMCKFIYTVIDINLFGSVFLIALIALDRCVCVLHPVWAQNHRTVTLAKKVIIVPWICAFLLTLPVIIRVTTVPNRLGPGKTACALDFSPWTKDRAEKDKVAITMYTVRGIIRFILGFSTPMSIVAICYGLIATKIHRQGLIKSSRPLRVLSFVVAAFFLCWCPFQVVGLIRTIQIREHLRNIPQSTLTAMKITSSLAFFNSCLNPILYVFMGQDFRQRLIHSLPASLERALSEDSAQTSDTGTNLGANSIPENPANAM
Briefly: competition with 6 nM 3H-fMLF on elicited rat neutrophils. Here is the method:
(§1) Neutrophils isolated by peritoneal lavage were washed twice with 1 mL of HBSS− (without calcium chloride, magnesium chloride and magnesium sulfate) and centrifuged for ten minutes at 2000 rpms following each wash. PMNs utilized in functional assays were centrifuged at 25° C. while those used in binding assays were centrifuged at 4° C. to prevent internalization. A cold H_2O RBC lysis was then performed with the addition of 9 mL of sterile ice-cold H_2O and 1 mL of phosphate buffered saline (PBS) solution containing 0.1 M phosphate buffer, 0.027 M KCl and 1.37 M NaCl following resuspension of the sample in 1 mL of HBSS−. Centrifugation was subsequently performed for ten minutes at 1600 rpms. White blood cell (WBC) differential stain containing saline, 2% acidic acid and phenol violet dye was used to identify the neutrophil population and trypan blue exclusion was used to determine viability of cells.
(§2) Total binding in the competition assays was assessed in the presence of 1.0 ×10^6 PMNs per sample while non-specific binding was determined in the absence of cells. Each condition was performed in quadruplicate.

In experiment [8] the target is T1, N-formyl-methionyl-leucyl-phenylalanine …. Description: competition with 6 nM 3H-fMLF for binding to elicited rat peritoneal neutrophils, 4 C, filter harvest. Here is the method: as §1, §2
For experiment [9], the target named is T2, N-formyl-methionyl-leucyl-phenylalanine (fMLF) receptor on human neutrophils (human, UniProt P21462 1-350).
T2 construct: whole, on cells; Native receptor on whole neutrophils from healthy volunteers; also called Human FPR; formyl peptide receptor
T2 sequence (looked up): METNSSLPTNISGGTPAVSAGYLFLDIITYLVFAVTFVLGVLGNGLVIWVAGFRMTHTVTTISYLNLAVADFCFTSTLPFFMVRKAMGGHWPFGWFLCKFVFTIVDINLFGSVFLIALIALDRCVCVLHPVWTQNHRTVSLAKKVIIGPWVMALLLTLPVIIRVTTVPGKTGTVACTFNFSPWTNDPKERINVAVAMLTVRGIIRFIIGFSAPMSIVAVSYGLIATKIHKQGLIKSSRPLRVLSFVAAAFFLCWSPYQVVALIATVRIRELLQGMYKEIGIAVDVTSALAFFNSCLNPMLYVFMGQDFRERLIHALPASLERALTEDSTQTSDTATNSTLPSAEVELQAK
Briefly: competition with 6 nM 3H-fMLF for binding to human neutrophils.

Experiment [10] concerns the target T1, N-formyl-methionyl-leucyl-phenylalanine …. Description: cell-based or functional assay.

Square brackets hold non-standard residues; d marks the D form. Ends that are not written are not given here. * marks the point of attachment. dimethylgly‑t‑butylgly‑cys‑gly = CN(C)CC(=O)N[C@H](C(=O)N[C@@H](CS)C(=O)NCC(=O)*)C(C)(C)C; Cyclopropanecarbonyl = O=C(C1CC1)*; Nle = CCCC[C@H](N)C(=O)O; For = O=C* A value given as a limit tells only on which side of the number the result lay.

As to “2-acetamido-5-thiazolesulfonyl-NleLFK (peptide)”, in experiment [1], the MPO release, % Control (1 uM) came out at 118 % control and the MPO release, % Control (10 uM) turned out to be 176 % control.
2-methoxyacetyl-NleLFK (peptide): in [1], the MPO release, % Control (1 uM) turned out to be 95 % control and the MPO release, % Control (10 uM) worked out at 97.1 % control.
In the case of 2-quinoxazoyl-NleLFK (peptide), in experiment [1], the % Control MPO Release (10 uM capping group + 0.1 uM fMLF) is 240 % control; the % Control MPO release (1 uM capping group + 0.1 uM fMLF) worked out at 323 % control; the MPO release, % Control (1 uM) stood at 117 % control; the MPO release, % Control (10 uM) was determined as 130 % control.
In experiment [1], 3-but-1-enoxycarbonyl-NleLFK (peptide) displayed an MPO release, % Control (1 uM) of 134 % control and an MPO release, % Control (10 uM) of 229 % control.
On to N,N-diethylcarbamoyl-NleLFK (peptide), for which, in experiment [1], the % Control MPO Release (10 uM capping group + 0.1 uM fMLF) was found to be 250 % control; the % Control MPO release (1 uM capping group + 0.1 uM fMLF) was determined as 283 % control; the MPO release, % Control (1 uM) came to 114 % control; the MPO release, % Control (10 uM) came out at 110 % control.
For N,N-diphenylcarbamoyl-NleLFK (peptide), in that order: 186 % control, 322 % control, 143 % control and 125 % control.
Usually IC50 stands for the midpoint of a concentration-inhibition curve. Lower therefore signals higher potency. In general, Kd refers to a measure of binding affinity in units of concentration. Read a high Kd as a looser complex. Turning to “N-formyl-methionyl-leucyl-phenylalanine (peptide)”, in experiment [1], the EC50 of myeloperoxidase release from elicited rat PMNs worked out at 110 nM. For the same molecule, in experiment [2], the 50% inhibitory concentration (IC50) was 5 nM. In experiment [3], this molecule registered a Kd of 6.4 nM and a binding sites per cell (binding sites per cell) of 41000. In experiment [4], this molecule came in with a Binding Sites/Cell (binding sites/cell) of 40000 and a Kd of 6.1 nM. The x-intercept of Scatchard transformation in experiment [5] was determined as 34. Moreover, in experiment [6], the IC50 is 50 nM.
For the molecule “N-phenyl-N-methylcarbamoyl-NleLFK (peptide)”, in experiment [1], the % Control MPO Release (10 uM capping group + 0.1 uM fMLF) is 121 % control; the % Control MPO release (1 uM capping group + 0.1 uM fMLF) stood at 171 % control; the MPO release, % Control (1 uM) stood at 94.7 % control; the MPO release, % Control (10 uM) was found to be 68 % control.
“N-tert-butyloxycarbonylated-methionyl-leucyl-phenylalanine (peptide)” registered an IC50 in experiment [6] of 9300 nM.
Regarding adamantylcarbonyl-NleLFK (peptide), in experiment [1], the % Control MPO Release (10 uM capping group + 0.1 uM fMLF) is 129 % control; the % Control MPO release (1 uM capping group + 0.1 uM fMLF) is 132 % control; the MPO release, % Control (1 uM) was 70.5 % control; the MPO release, % Control (10 uM) is 71.7 % control.
For the molecule cyclopropylcarbonyl-NleLFK (peptide), in [1], the MPO release, % Control (1 uM) came to 108 % control and the MPO release, % Control (10 uM) was found to be 91.8 % control.
As for “fluorenylmethylcarbonyl-NleLFK (peptide)”, in [1], the % Control MPO Release (10 uM capping group + 0.1 uM fMLF) turned out to be 109 % control; the % Control MPO release (1 uM capping group + 0.1 uM fMLF) came to 162 % control; the MPO release, % Control (1 uM) turned out to be 84.1 % control; the MPO release, % Control (10 uM) is 59.9 % control.
In experiment [1], furoyl-NleLFK (peptide) had an MPO release, % Control (1 uM) of 93 % control and an MPO release, % Control (10 uM) of 102 % control.
As for phenylthioacetyl-NleLFK (peptide), in experiment [1], the MPO release, % Control (1 uM) came out at 139 % control and the MPO release, % Control (10 uM) was found to be 120 % control.
Take trans-cinnamoyl-NleLFK (peptide): in experiment [1], the MPO release, % Control (1 uM) was determined as 133 % control and the MPO release, % Control (10 uM) was 196 % control.

B1: ReO-CyclopropylCONH-nleu-leu-phe-trp-his-lys(dimethylgly-t-butylgly-cys-gly)-gly-OH (peptide)
peptide: Cyclopropanecarbonyl-[Nle]LFWHK(dimethylgly‑t‑butylgly‑cys‑gly)G-OH
modifications: also: ReO (rhenium oxo) complex with Lys6 side-chain chelator
notes: Rhenium complex as tested; also called ReORP553 17-04; RP553-17-04
B1: in [7], the “fold more potent than N-t-BocMLF” value is not below 1.5 fold. The same molecule yielded an IC50 in experiment [8] of 1770 nM.

B2: ReO-CyclopropylCONH-nleu-leu-phe-ser-glu-lys(dimethylgly-t-butylgly-cys-gly)-gly-OH (peptide)
peptide: Cyclopropanecarbonyl-[Nle]LFSEKG-OH
modifications: not fully specified (residue 6); printed as ReO-CyclopropylCONH-nleu-leu-phe-ser-glu-lys(dimethylgly-t-butylgly-cys-gly)-gly-OH; also: ReO (rhenium oxo) complex on the side-chain chelate
notes: Rhenium complex as tested; also called ReORP553 17-02; RP553-17-02
With B2, in [7], the “fold more potent than N-t-BocMLF” value was not below 1.5 fold. Besides, in [8], the concentration for half-maximal inhibition (IC50) amounted to 2310 nM.

B3: ReO-CyclopropylCONH-nleu-leu-phe-trp-glu-lys(dimethylgly-t-butylgly-cys-gly)-gly-OH (peptide)
peptide: Cyclopropanecarbonyl-[Nle]LFWEK(dimethylgly‑t‑butylgly‑cys‑gly)G-OH
modifications: also: ReO (rhenium oxo) complex with Lys6 side-chain chelator
notes: Rhenium complex as tested; also called ReORP553 17-01; RP553-17-01
As for B3, in [7], the “fold greater binding affinity than N-t-BocMLF” value was approximately 12 fold, the “fold less binding affinity than fMLF” value is approximately 15 fold and the “fold more potent than N-t-BocMLF” value is not below 1.5 fold. The IC50 in experiment [9] is 140 nM. In experiment [8], the IC50 stood at 730 nM.

B4: ReO-CyclopropylCONH-nleu-leu-phe-tyr-lys-lys(dimethylgly-t-butylgly-cys-gly)-gly-OH (peptide)
peptide: Cyclopropanecarbonyl-[Nle]LFYKK(dimethylgly‑t‑butylgly‑cys‑gly)G-OH
modifications: also: ReO (rhenium oxo) complex with Lys6 side-chain chelator
notes: Rhenium complex as tested; also called ReORP553 17-09; RP553-17-09
Take B4: in [7], the “fold more potent than N-t-BocMLF” value was not below 1.5 fold. Also, the IC50 in experiment [8] stood at 5930 nM.

B5: ReO-CyclopropylCONH-nleu-leu-phe-tyr-his-lys(dimethylgly-t-butylgly-cys-gly)-gly-OH (peptide)
peptide: Cyclopropanecarbonyl-[Nle]LFYHK(dimethylgly‑t‑butylgly‑cys‑gly)G-OH
modifications: also: ReO (rhenium oxo) complex with Lys6 side-chain chelator
notes: Rhenium complex as tested; also called ReORP553 17-06; RP553-17-06
For B5, the “fold more potent than N-t-BocMLF” value in experiment [7] was not below 1.5 fold. The molecule also showed an IC50 in experiment [8] of 1220 nM.

B6: ReO-CyclopropylCONH-nleu-leu-phe-ser-lys-lys(dimethylgly-t-butylgly-cys-gly)-gly-OH (peptide)
peptide: Cyclopropanecarbonyl-[Nle]LFSKK(dimethylgly‑t‑butylgly‑cys‑gly)G-OH
modifications: also: ReO (rhenium oxo) complex with Lys6 side-chain chelator
notes: Rhenium complex as tested; also called ReORP553 17-08; RP553-17-08
As to B6, the “fold more potent than N-t-BocMLF” value in experiment [7] is not below 1.5 fold. Further, the IC50 in experiment [8] is 4950 nM.

B7: ReO-CyclopropylCONH-nleu-leu-phe-ser-his-lys(dimethylgly-t-butylgly-cys-gly)-gly-OH (peptide)
peptide: Cyclopropanecarbonyl-[Nle]LFSHK(dimethylgly‑t‑butylgly‑cys‑gly)G-OH
modifications: also: ReO (rhenium oxo) complex with Lys6 side-chain chelator
notes: Rhenium complex as tested; also called ReORP553 17-05; RP553-17-05
As for B7, the “fold more potent than N-t-BocMLF” value in experiment [7] is not below 1.5 fold. In experiment [8], the IC50 was 1010 nM.

B8: ReO-CyclopropylCONH-nleu-leu-phe-trp-lys-lys(dimethylgly-t-butylgly-cys-gly)-gly-OH (peptide)
peptide: Cyclopropanecarbonyl-[Nle]LFWKK(dimethylgly‑t‑butylgly‑cys‑gly)G-OH
modifications: also: ReO (rhenium oxo) complex with Lys6 side-chain chelator
notes: Rhenium complex as tested; also called ReORP553 17-07; RP553-17-07
Take B8: the “fold more potent than N-t-BocMLF” value in experiment [7] is not below 1.5 fold. The IC50 in experiment [8] was 760 nM.
Take For-MLFK [N-formyl-methionyl-leucyl-phenylalanyl-lysine]: in experiment [10], the “EC50 of myeloperoxidase release from elicited rat PMNs” value turned out to be 140 nM.
